Measurements published in PMC12102759 (2025).

B1: MXI1 peptide 6-21 (Max-interacting protein 1), 16-mer library wild type / SIN3A PAH2 (SIN3A PAH domain, residues 295-383) (parent complex)
chain 1: MINVQRLLEAAEFLER
chain 2: SLQNNQPVEFNHAINYVNKIKNRFQGQPDIYKAFLEILHTYQKEQRNAKEAGGNYTPALTEQEVYAQVARLFKNQEDLLSEFGQFLPDA
B2: PEX5 peptide 110-125 (Peroxisomal targeting signal 1 receptor), 16-mer library wild type / PEX14 Pex14 (PEX14 PEX14, residues 16-84) (parent complex)
chain 1: ADLALSENWAQEFLAA
chain 2: TPGSENVLPREPLIATAVKFLQNSRVRQSPLATRRAFLKKKGLTDEEIDMAFQQSGTAADEPSSLGPAT

Variants of: B1
Experiment: proteomic peptide phage display deep mutational scan (ProP-PD DMS): M13 P8 16-mer library selected against immobilised GST-tagged bait for four days (rounds), NGS of the eluted pools per day and pseudo-replica; bait immobilised on MaxiSorp plates (10 µg), library pre-cleared on GST, 2 h binding at 4 °C, five washes; one round per day, days 1-4; value from days 2 and 3

Row | Variant | screen value
1 | chain 1 MINVQRLLEAAEFLQR [chain 1 E15Q] | 0.000842 average fractional NGS count over selection days 2 and 3 (reads of this peptide / all reads for the bait, averaged over …
2 | chain 1 MIKVQRLLEAAEFLER [chain 1 N3K] | 0.000249 average fractional NGS count over selection days 2 and 3 (reads of this peptide / all reads for the bait, averaged over …
3 | chain 1 MINVQALLEAAEFLER [chain 1 R6A] | 0.00198 average fractional NGS count over selection days 2 and 3 (reads of this peptide / all reads for the bait, averaged over …
4 | chain 1 MINVQRLGEAAEFLER [chain 1 L8G] | 0.000132 average fractional NGS count over selection days 2 and 3 (reads of this peptide / all reads for the bait, averaged over …
5 | chain 1 YINVQRLLEAAEFLER [chain 1 M1Y] | 0.000304 average fractional NGS count over selection days 2 and 3 (reads of this peptide / all reads for the bait, averaged over …
6 | chain 1 DINVQRLLEAAEFLER [chain 1 M1D] | 9.92e-05 average fractional NGS count over selection days 2 and 3 (reads of this peptide / all reads for the bait, averaged over …
7 | chain 1 MINVQRLLSAAEFLER [chain 1 E9S] | 0.0016 average fractional NGS count over selection days 2 and 3 (reads of this peptide / all reads for the bait, averaged over …
8 | chain 1 MLNVQRLLEAAEFLER [chain 1 I2L] | 0.000364 average fractional NGS count over selection days 2 and 3 (reads of this peptide / all reads for the bait, averaged over …
9 | chain 1 MINVQRLLEAAEFYER [chain 1 L14Y] | 0.00247 average fractional NGS count over selection days 2 and 3 (reads of this peptide / all reads for the bait, averaged over …
10 | chain 1 MENVQRLLEAAEFLER [chain 1 I2E] | 0.00021 average fractional NGS count over selection days 2 and 3 (reads of this peptide / all reads for the bait, averaged over …
11 | chain 1 MINVQRLLEWAEFLER [chain 1 A10W] | 0.000448 average fractional NGS count over selection days 2 and 3 (reads of this peptide / all reads for the bait, averaged over …
12 | chain 1 MINVQRLLEAAEQLER [chain 1 F13Q] | 0.00155 average fractional NGS count over selection days 2 and 3 (reads of this peptide / all reads for the bait, averaged over …
13 | chain 1 MINVQRLLEAEEFLER [chain 1 A11E] | 0.000155 average fractional NGS count over selection days 2 and 3 (reads of this peptide / all reads for the bait, averaged over …
14 | chain 1 MINVQRLLEAAERLER [chain 1 F13R] | 0.00192 average fractional NGS count over selection days 2 and 3 (reads of this peptide / all reads for the bait, averaged over …
15 | chain 1 MINVQRLLEAWEFLER [chain 1 A11W] | 0.00145 average fractional NGS count over selection days 2 and 3 (reads of this peptide / all reads for the bait, averaged over …
16 | chain 1 KINVQRLLEAAEFLER [chain 1 M1K] | 0.000747 average fractional NGS count over selection days 2 and 3 (reads of this peptide / all reads for the bait, averaged over …
17 | chain 1 MINTQRLLEAAEFLER [chain 1 V4T] | 0.00342 average fractional NGS count over selection days 2 and 3 (reads of this peptide / all reads for the bait, averaged over …
18 | chain 1 MINVQRLLEAIEFLER [chain 1 A11I] | 0.000346 average fractional NGS count over selection days 2 and 3 (reads of this peptide / all reads for the bait, averaged over …
19 | chain 1 MINVHRLLEAAEFLER [chain 1 Q5H] | 0.00355 average fractional NGS count over selection days 2 and 3 (reads of this peptide / all reads for the bait, averaged over …
20 | chain 1 MIEVQRLLEAAEFLER [chain 1 N3E] | 0.000543 average fractional NGS count over selection days 2 and 3 (reads of this peptide / all reads for the bait, averaged over …

Variants of: B2
Experiment: as above

Row | Variant | screen value
21 | chain 1 AHLALSENWAQEFLAA [chain 1 D2H] | 0.004 average fractional NGS count over selection days 2 and 3 (reads of this peptide / all reads for the bait, averaged over …
22 | chain 1 ADLLLSENWAQEFLAA [chain 1 A4L] | 0.000672 average fractional NGS count over selection days 2 and 3 (reads of this peptide / all reads for the bait, averaged over …
23 | chain 1 ADLALSHNWAQEFLAA [chain 1 E7H] | 0.00742 average fractional NGS count over selection days 2 and 3 (reads of this peptide / all reads for the bait, averaged over …
24 | chain 1 ADPALSENWAQEFLAA [chain 1 L3P] | 0.00046 average fractional NGS count over selection days 2 and 3 (reads of this peptide / all reads for the bait, averaged over …
25 | chain 1 ADLALSENWAQEFLWA [chain 1 A15W] | 0.00189 average fractional NGS count over selection days 2 and 3 (reads of this peptide / all reads for the bait, averaged over …
26 | chain 1 ADFALSENWAQEFLAA [chain 1 L3F] | 0.000885 average fractional NGS count over selection days 2 and 3 (reads of this peptide / all reads for the bait, averaged over …
27 | chain 1 ADLAASENWAQEFLAA [chain 1 L5A] | 0.00106 average fractional NGS count over selection days 2 and 3 (reads of this peptide / all reads for the bait, averaged over …
28 | chain 1 PDLALSENWAQEFLAA [chain 1 A1P] | 0.000566 average fractional NGS count over selection days 2 and 3 (reads of this peptide / all reads for the bait, averaged over …
29 | chain 1 AELALSENWAQEFLAA [chain 1 D2E] | 0.000736 average fractional NGS count over selection days 2 and 3 (reads of this peptide / all reads for the bait, averaged over …
30 | chain 1 ADLALSENWAQEWLAA [chain 1 F13W] | 0.000735 average fractional NGS count over selection days 2 and 3 (reads of this peptide / all reads for the bait, averaged over …
31 | chain 1 ADLAYSENWAQEFLAA [chain 1 L5Y] | 0.00132 average fractional NGS count over selection days 2 and 3 (reads of this peptide / all reads for the bait, averaged over …
32 | chain 1 ADLALSDNWAQEFLAA [chain 1 E7D] | 0.00312 average fractional NGS count over selection days 2 and 3 (reads of this peptide / all reads for the bait, averaged over …
33 | chain 1 ADLALSENWAQMFLAA [chain 1 E12M] | 0.000654 average fractional NGS count over selection days 2 and 3 (reads of this peptide / all reads for the bait, averaged over …
34 | chain 1 ADLALSEFWAQEFLAA [chain 1 N8F] | 0.00191 average fractional NGS count over selection days 2 and 3 (reads of this peptide / all reads for the bait, averaged over …
35 | chain 1 ADLALSENWAQEFLVA [chain 1 A15V] | 0.000924 average fractional NGS count over selection days 2 and 3 (reads of this peptide / all reads for the bait, averaged over …
36 | chain 1 ADLALSENWRQEFLAA [chain 1 A10R] | 0.000397 average fractional NGS count over selection days 2 and 3 (reads of this peptide / all reads for the bait, averaged over …
37 | chain 1 ADLALSENWAQEFDAA [chain 1 L14D] | 0.000896 average fractional NGS count over selection days 2 and 3 (reads of this peptide / all reads for the bait, averaged over …
38 | chain 1 ADLALSENWAQEFRAA [chain 1 L14R] | 0.000944 average fractional NGS count over selection days 2 and 3 (reads of this peptide / all reads for the bait, averaged over …

Row | Variant | screen value
39 | chain 1 ADLALSENWAWEFLAA [chain 1 Q11W] | 0.0122 average fractional NGS count over selection days 2 and 3 (reads of this peptide / all reads for the bait, averaged over …
40 | chain 1 ADLAQSENWAQEFLAA [chain 1 L5Q] | 0.000395 average fractional NGS count over selection days 2 and 3 (reads of this peptide / all reads for the bait, averaged over …
41 | chain 1 ADLALSVNWAQEFLAA [chain 1 E7V] | 0.000676 average fractional NGS count over selection days 2 and 3 (reads of this peptide / all reads for the bait, averaged over …
42 | chain 1 ADLTLSENWAQEFLAA [chain 1 A4T] | 0.00418 average fractional NGS count over selection days 2 and 3 (reads of this peptide / all reads for the bait, averaged over …
43 | chain 1 ADLALSEIWAQEFLAA [chain 1 N8I] | 0.0016 average fractional NGS count over selection days 2 and 3 (reads of this peptide / all reads for the bait, averaged over …
44 | chain 1 ADLALSMNWAQEFLAA [chain 1 E7M] | 0.0015 average fractional NGS count over selection days 2 and 3 (reads of this peptide / all reads for the bait, averaged over …
45 | chain 1 ADHALSENWAQEFLAA [chain 1 L3H] | 0.00618 average fractional NGS count over selection days 2 and 3 (reads of this peptide / all reads for the bait, averaged over …
46 | chain 1 YDLALSENWAQEFLAA [chain 1 A1Y] | 0.000485 average fractional NGS count over selection days 2 and 3 (reads of this peptide / all reads for the bait, averaged over …
47 | chain 1 ADLALSEEWAQEFLAA [chain 1 N8E] | 0.00099 average fractional NGS count over selection days 2 and 3 (reads of this peptide / all reads for the bait, averaged over …
48 | chain 1 ADLALSENWAYEFLAA [chain 1 Q11Y] | 0.000918 average fractional NGS count over selection days 2 and 3 (reads of this peptide / all reads for the bait, averaged over …
49 | chain 1 FDLALSENWAQEFLAA [chain 1 A1F] | 0.00127 average fractional NGS count over selection days 2 and 3 (reads of this peptide / all reads for the bait, averaged over …
50 | chain 1 ADLALSENWGQEFLAA [chain 1 A10G] | 0.00143 average fractional NGS count over selection days 2 and 3 (reads of this peptide / all reads for the bait, averaged over …
51 | chain 1 ADLALSESWAQEFLAA [chain 1 N8S] | 0.00269 average fractional NGS count over selection days 2 and 3 (reads of this peptide / all reads for the bait, averaged over …
52 | chain 1 ADLALSENWHQEFLAA [chain 1 A10H] | 0.013 average fractional NGS count over selection days 2 and 3 (reads of this peptide / all reads for the bait, averaged over …
53 | chain 1 ADLNLSENWAQEFLAA [chain 1 A4N] | 0.000393 average fractional NGS count over selection days 2 and 3 (reads of this peptide / all reads for the bait, averaged over …
54 | chain 1 ADLALSSNWAQEFLAA [chain 1 E7S] | 0.00412 average fractional NGS count over selection days 2 and 3 (reads of this peptide / all reads for the bait, averaged over …
55 | chain 1 ADLALSENWAQEFLFA [chain 1 A15F] | 0.000391 average fractional NGS count over selection days 2 and 3 (reads of this peptide / all reads for the bait, averaged over …
56 | chain 1 ADLAMSENWAQEFLAA [chain 1 L5M] | 0.000827 average fractional NGS count over selection days 2 and 3 (reads of this peptide / all reads for the bait, averaged over …
